# How the values were obtained:
# Mota Fab [1] = target: T1, Mota Fab; assay: SPR (Biacore 2000); scaffold coupled to chip, Motavizumab as analyte
# T1 construct: also called Motavizumab Fab; Fab portion of Motavizumab
# Procedure: All experiments were carried out on a Biacore 2000 (GE Healthcare) at 25° C. with HBSEP (0.01 M HEPES pH 7.4, 0.15 M NaCl, 3 mM EDTA and 0.005% (v/v) Surfactant P20) (GE Healthcare) as running buffer. […] Samples of different protein concentrations were injected in duplicates over this surface at a flow rate of 50-100 μl/min. If necessary, surface regeneration was performed with two 60 seconds injections of 3 M MgCl₂ at a flow rate of 10 μl/min. One flow cell contained anti-human IgG only and its interaction with the analyte was used as reference. Alternatively, another format was used where the epitope where amine-coupled to the sensor chip and Mota Fab was injected with identical flow rates as mentioned above.
# To test whether the functional site (mota epitope) was recreated with fidelity, binding affinities were assessed by Surface Plasmon Resonance (SPR) experiments (FIG. 6). […] (See Table 3) The scaffolds were coupled to the biacore chip and Motavizumab was used as analyte.
# Mota Fab [2] = target: T1, Mota Fab; assay: SPR (Biacore 2000); koff/kon; scaffold coupled to chip, Motavizumab as analyte
Binder,koff (Mota Fab [1]) [s⁻¹],kon (Mota Fab [1]) [M⁻¹ s⁻¹],Kd (Mota Fab [2]) [nM]
"FFL_001 (designed binder, monomeric) GSRSDMRKDAERRFDKFVEAAKNKFDKFKAALRKGDIKEERRKDMKKLARKEAEQARRAVRNRLSELLSKINDMPITNDQKKLMSNDVLKFAAEAEKKIEALAADAEDKFTQGSW",0.000119,3.99e+06,0.03
FFL_005 (designed binder) GSMSDIRKDLEERFDKLVEALKNKVDKMKAAFRKDQFHEERMKDWFKDLRKEVEQMRRAVRNYASEALSKINDLPITNDDKKLASNDVLKLVAEVWKKLEAILADVEAWFTQLEHHHHHH,0.000209,2.97e+06,0.0703
"FFL_006 (designed binder, Purified on Ni++ resin; no tag is stated for this construct) GSFSDIRKDAEDRADKAFEAAKNKFDKIKAAIRKDWPSEERAKDLMKKARYEMEQARRAIRNIESEALSKINDLPITNDQKKLASNDIIKEMARLFKKLEALMADIEILVTQ",,,0.652
FFL_007 (designed binder) GSLSDIRKDAERRFDKLVEAVKNKLDKMKAALRKEGQQEERMKDLMKFMRKEVEQLRKAMRNFLSEALSKINDMPITNDDKKLISNDLKKYDAIAEKKLEAMKADVERMATQGSWLEHHHHHH,0.000136,1.45e+06,0.0941
"FFL_002 (designed binder, Purified on Ni++ resin; no tag is stated for this construct) GSLSDVRKDVEKRIDKALEAFKNKMDKEKAAFRKDPPSEERRKDKKKEFREEREQVRKAIRNVLSEALSKINDLPITNDKKKLVSNDVIKKVAEMKKKVELEVADVEKKVTQGSW",0.000734,1.56e+06,0.47
"FFL_004 (designed binder, Purified on Ni++ resin; no tag is stated for this construct) GSMSDARKDLEERLDKLLEAAKNKMDKFKAAMRKRGQREERKKDWAKIVRDEFEQFRKAVRNFLSEALSKINDYPITNDDKKLTSNDTKKFAAEVEKKLEAFKADVEEAATQ",0.000832,1.05e+06,0.795

# — patent US20150050306A1 (University of Washington, published 2015)
